Assay results as given in publication PMC10118082 (PLOS ONE, 2023).
“And” between values parts separate entries of the source, which are not always exact repeats. Equal entries are not always repeated.

Key:
[1] = biological target: T1, human complement component 5 (C5) (Homo sapiens, UniProt P01031); assay: cell-based or functional assay
[2] = biological target: T1, human complement component 5 (C5); assay: SEC-MALS; antibody (700 nM) plus C5 (400 nM) incubated about 30 min at room temperature in PBS; Bio SEC-5 1000 A column run in PBS; no eculizumab; details: both partners purified

stoichiometry N [2]: 1 C5 per TPP-2799 and 2 C5 per TPP-2799
B1: mAb TPP-2799 (antibody, V domains shown)
VH: QVQLVESGGGLVQPGRSLRLSCAASGFTVHSSYYMAWVRQAPGKGLEWVGAIFTGSGAEYKAEWAKGRVTISKDTSKNQVVLTMTNMDPVDTATYYCASDAGYDYPTHAMHYWGQGTLVTVSS
VL: DIQMTQSPSSLSASVGDRVTITCRASQGISSSLAWYQQKPGKAPKLLIYGASETESGVPSRFSGSGSGTDFTLTISSLQPEDFATYYCQNTKVGSSYGNTFGGGTKVEIK
notes: heavy chain of Chugai mAb RO7112689 (crovalimab) as described in CAS Registry Number 1917321-26-6; light chain of Chugai mAb RO7112689 (crovalimab) as described in CAS Registry Number 1917321-26-6; MALS mass alone 154 kDa; also called RO7112689; source: Expi293, transiently expressed, purified (MabSelect SuRe); copies: 2 + 2
IC50 of inhibition of classical-pathway hemolysis of antibody-sensitized chicken red blood cells in 20% (v/v) human serum [1]: 30 nM
